Source: patent US20230265151A1, “GIP/GLP1 CO-AGONIST COMPOUNDS” (priority 2020, published 2023)
Where a chain is given by its changes, count along the chain named.

B1: Example 203 (peptide)
peptide: YXEGTXTSDXSIXLDXIAQXEFIKXLIKGGPSSGAPPPS
modifications: Aib2, αMeF(2F)6, 4Pal10, αMeL13, Orn16, Aib20, K24(Z), αMeY25, K28(Z), C-terminal NH2; Z = AEEA2-(γ-Glu)-(4-(4-tert-butylphenyl)butanoyl)
B2: Y-Aib-EGT-αMeF(2F)-TSD-4Pal-SI-αMeL-LD-Orn-IAQ-Aib-EFIK((2-[2-(2-Amino-ethoxy)-ethoxy]-acetyl)2-(γ-Glu)-(4-(4-tert-butylphenyl)butanoyl))-αMeY-LIK((2-[2-(2-Amin … (peptide)
peptide: B1 peptide
modifications: Aib2, αMeF(2F)6, 4Pal10, αMeL13, Orn16, Aib20, αMeY25; acylated K24, K28 (groups as in name); C-terminal amide
B3: Example 222 (peptide)
peptide: B1 peptide with E21K, K24X
modifications: Aib2, αMeF(2F)6, 4Pal10, αMeL13, Orn16, Aib20, K21(Z), D-Glu24, αMeY25, K28(Z), C-terminal NH2; Z = AEEA2-CO-(CH2)12-CO2H
B4: Example 253 (peptide)
peptide: B1 peptide with E21K, K24X
modifications: Aib2, αMeF(2F)6, 2Nal10, αMeL13, Orn16, Aib20, K21(Z), D-Glu24, αMeY25, K28(Z), C-terminal NH2; Z = AEEA2-(γ-Glu)-CO-(CH2)12-CO2H
B5: Example 227 (peptide)
peptide: B1 peptide with E21K, K24X
modifications: Aib2, αMeF(2F)6, 4Pal10, αMeL13, Orn16, Aib20, K21(Z), D-Glu24, αMeY25, K28(Z), C-terminal NH2; Z = AEEA3-(γ-Glu)-CO-(CH2)12-CO2H
B6: Example 204 (peptide)
peptide: B1 peptide with E21K, K24X
modifications: Aib2, αMeF(2F)6, 4Pal10, αMeL13, Orn16, Aib20, K21(Z), D-Glu24, αMeY25, K28(Z), C-terminal NH2; Z = AEEA2-(γ-Glu)-(4-(4-tert-butylphenyl)butanoyl)
B7: Example 252 (peptide)
peptide: B1 peptide
modifications: Aib2, αMeF(2F)6, 2Nal10, αMeL13, Orn16, Aib20, K24(Z), αMeY25, K28(Z), C-terminal NH2; Z = AEEA2-(γ-Glu)-CO-(CH2)12-CO2H
B8: Example 226 (peptide)
peptide: B1 peptide
modifications: Aib2, αMeF(2F)6, 4Pal10, αMeL13, Orn16, Aib20, K24(Z), αMeY25, K28(Z), C-terminal NH2; Z = AEEA3-(γ-Glu)-CO-(CH2)12-CO2H
B9: Example 205 (peptide)
peptide: YXEGTXTSDXSIXLDXIAQXKFIXXLIEGGPSSGAPPPSK
modifications: Aib2, αMeF(2F)6, 4Pal10, αMeL13, Orn16, Aib20, K21(Z), D-Glu24, αMeY25, K40(Z), C-terminal NH2; Z = AEEA2-(γ-Glu)-(4-(4-tert-butylphenyl)butanoyl)
B10: Example 225 (peptide)
peptide: B9 peptide with I17K, K21E
modifications: Aib2, αMeF(2F)6, 4Pal10, αMeL13, Orn16, K17(Z), Aib20, D-Glu24, αMeY25, K40(Z), C-terminal NH2; Z = AEEA3-(γ-Glu)-CO-(CH2)12-CO2H
B11: Example 251 (peptide)
peptide: B9 peptide with I17K, K21E
modifications: Aib2, αMeF(2F)6, 2Nal10, αMeL13, Orn16, K17(Z), Aib20, D-Glu24, αMeY25, K40(Z), C-terminal NH2; Z = AEEA2-(γ-Glu)-CO-(CH2)12-CO2H
B12: Example 257 (peptide)
peptide: B9 peptide with I17K, K21E
modifications: Aib2, αMeF(2F)6, 2Nal10, αMeL13, Orn16, K17(Z), Aib20, D-Glu24, αMeY25, K40(Z), C-terminal NH2; Z = AEEA2-CO-(CH2)12-CO2H
B13: Example 258 (peptide)
peptide: B9 peptide
modifications: Aib2, αMeF(2F)6, 2Nal10, αMeL13, Orn16, Aib20, K21(Z), D-Glu24, αMeY25, K40(Z), C-terminal NH2; Z = AEEA2-CO-(CH2)12-CO2H
B14: Example 254 (peptide)
peptide: B9 peptide
modifications: Aib2, αMeF(2F)6, 2Nal10, αMeL13, Orn16, Aib20, K21(Z), D-Glu24, αMeY25, K40(Z), C-terminal NH2; Z = AEEA2-(γ-Glu)-CO-(CH2)12-CO2H
B15: Example 221 (peptide)
peptide: B9 peptide with I17K, K21E
modifications: Aib2, αMeF(2F)6, 4Pal10, αMeL13, Orn16, K17(Z), Aib20, D-Glu24, αMeY25, K40(Z), C-terminal NH2; Z = AEEA2-CO-(CH2)12-CO2H
B16: Example 209 (peptide)
peptide: B9 peptide with I17K, K21E
modifications: Aib2, αMeF(2F)6, 4Pal10, αMeL13, Orn16, K17(Z), Aib20, D-Glu24, αMeY25, K40(Z), C-terminal NH2; Z = AEEA-(γ-Glu)-(4-(4-tert-butylphenyl)butanoyl)
B17: Example 228 (peptide)
peptide: B9 peptide
modifications: Aib2, αMeF(2F)6, 4Pal10, αMeL13, Orn16, Aib20, K21(Z), D-Glu24, αMeY25, K40(Z), C-terminal NH2; Z = AEEA3-(γ-Glu)-CO-(CH2)12-CO2H

Columns and labels:
Test in all cases: cell-based or functional assay
[1] = biological target: human glucagon-like peptide-1 (GLP-1) receptor (human, UniProt P43220 24-463)
[2] = biological target: T1, human glucose-dependent insulinotropic polypeptide (GIP) receptor (human, UniProt P48546 22-466)
T1 sequence (looked up): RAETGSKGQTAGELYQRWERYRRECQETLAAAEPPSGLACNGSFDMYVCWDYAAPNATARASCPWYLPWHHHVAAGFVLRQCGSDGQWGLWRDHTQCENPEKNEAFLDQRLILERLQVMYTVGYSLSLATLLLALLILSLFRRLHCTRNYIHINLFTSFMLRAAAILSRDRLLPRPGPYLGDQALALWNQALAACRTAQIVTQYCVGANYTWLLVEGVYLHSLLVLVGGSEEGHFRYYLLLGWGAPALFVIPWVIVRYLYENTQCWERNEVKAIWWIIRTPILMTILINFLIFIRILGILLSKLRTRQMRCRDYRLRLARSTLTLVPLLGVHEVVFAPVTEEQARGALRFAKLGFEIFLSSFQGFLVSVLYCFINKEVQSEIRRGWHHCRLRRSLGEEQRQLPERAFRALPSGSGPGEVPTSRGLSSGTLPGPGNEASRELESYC

[3] = biological target: human glucagon receptor (human, UniProt P47871 26-477)
[4] = biological target: T2, human GIP receptor (human, UniProt P48546 22-466)
T2 sequence (looked up): T1 sequence (looked up)

[5] = biological target: human glucagon receptor (human, UniProt P47871 26-477); remark: listed apart in the source

Row | Binder | cAMP EC50 [1] [nM] | cAMP EC50 [2] [nM] | cAMP EC50 [3] [nM] | cAMP EC50 (1.0% HSA) [4] [nM] | cAMP EC50 (1.0% HSA) [5] [nM] | cAMP Emax [1] [%] | cAMP Emax [2] [%]
1 | B1 | 0.535 | 0.0721 | > 9950 |  |  |  | 
2 | B2 |  |  |  | 0.682 | > 9950 |  | 
3 | B3 | 0.518 | 0.0195 | > 9950 |  |  |  | 
4 | B4 | 0.43 | 0.0295 | > 9950 |  |  |  | 
5 | B5 | 1.22 | 0.0224 | > 9950 |  |  |  | 
6 | B6 | 0.47 | 0.0304 | > 9950 |  |  | 126 | 
7 | B7 | 0.555 | 0.049 | > 9950 |  |  |  | 
8 | B8 | 0.611 | 0.0232 | > 9950 |  |  |  | 
9 | B9 | 0.287 | 0.0264 | > 9950 |  |  |  | 
10 | B10 | 9.62 | 0.0466 | > 9950 |  |  |  | 
11 | B11 | 0.338 | 0.0305 | > 9950 |  |  |  | 
12 | B12 | 2.03 | 0.148 | > 9950 |  |  | 82 | 
13 | B13 | 0.653 | 0.0473 | > 9950 |  |  |  | 90.3
14 | B14 | 0.507 | 0.0273 | > 9950 |  |  |  | 
15 | B15 | 1.83 | 0.0279 | > 9950 |  |  | 83 | 
16 | B16 | 0.235 | 0.0133 | > 9950 |  |  |  | 
17 | B17 | 1.34 | 0.0232 | > 9950 |  |  | 91.1 | 
